Kd data for one molecule are collected here from patent US20190085075A1 (published 2019).

Assay [1] addresses T1, His-tagged soluble human LAG-3 (shLAG-3-His) (human, UniProt P18627 23-450).
T1 construct: also called soluble human LAG-3-His fusion protein; extracellular domain of human LAG-3 fused to a His tag; not shown: His tag
T1 sequence: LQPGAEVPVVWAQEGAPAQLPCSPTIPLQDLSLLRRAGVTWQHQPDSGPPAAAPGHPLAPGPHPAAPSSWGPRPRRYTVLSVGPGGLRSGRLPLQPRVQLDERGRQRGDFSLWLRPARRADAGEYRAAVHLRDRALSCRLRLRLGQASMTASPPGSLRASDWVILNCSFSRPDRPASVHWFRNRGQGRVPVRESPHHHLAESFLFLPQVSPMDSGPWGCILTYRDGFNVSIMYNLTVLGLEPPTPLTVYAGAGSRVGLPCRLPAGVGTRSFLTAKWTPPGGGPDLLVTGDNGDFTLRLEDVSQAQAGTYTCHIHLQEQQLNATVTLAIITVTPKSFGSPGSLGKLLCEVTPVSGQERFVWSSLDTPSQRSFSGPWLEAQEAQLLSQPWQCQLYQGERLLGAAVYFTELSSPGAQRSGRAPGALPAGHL
As to the kind of experiment: Biacore; antibody captured (capture surface not marked for this row), shLAG-3-His injected. A general note: Surface plasmon resonance follows binding to a sensor surface in real time, without labels.

Assay [2] addresses T2, soluble cynomolgus monkey LAG-3 fusion protein (extracellular domain of cynomolgus monkey LAG-3 fused to … (cynomolgus monkey; murine).
T2 construct: extracellular domain; also called cynomolgus LAG-3-murine IgG2a fusion protein
As to the kind of experiment: Biacore; cynomolgus LAG-3 ECD-murine IgG2a captured on Fab2 goat-anti-mouse Fc, antibody injected.

In assay [3] the target is T3, soluble human LAG-3 fusion protein (extracellular domain of human LAG-3 fused to murine IgG2a) (human; murine, UniProt P18627 23-450).
T3 construct: also called human LAG-3-murine IgG2a fusion protein; not shown: murine IgG2a
T3 sequence: T1 sequence
As to the kind of experiment: Biacore; human LAG-3 ECD-murine IgG2a captured on Fab2 goat-anti-mouse Fc, antibody injected.

B1: LAG-3 mAb A (25F7, BMS-986016, Medarex/BMS) (antibody, V domains shown)
VH: QVQLQQWGAGLLKPSETLSLTCAVYGGSFSDYYWNWIRQPPGKGLEWIGEINHNGNTNSNPSLKSRVTLSLDTSKNQFSLKLRSVTAADTAVYYCAFGYSDYEYNWFDPWGQGTLVTVSS
VL: EIVLTQSPATLSLSPGERATLSCRASQSISSYLAWYQQKPGQAPRLLIYDASNRATGIPARFSGSGSGTDFTLTISSLEPEDFAVYYCQQRSNWPLTFGQGTNLEIK
notes: also called LAG-2 mAb A
Consider B1, for which the values for the Kd in assay [1], in assay [2] and in assay [3] were 0.6 nM, 458 nM and 0.16 nM, respectively.

Usually Kd stands for a measure of binding affinity in units of concentration.
